Values quoted from earlier work in publication PMC11394807.
Where two headings read alike, the source gives them in different places.

Assays:
[1] = target: Spike protein (SARS-CoV-2) (UniProt P0DTC2)
[2] = target: Spike protein (SARS-CoV-2) (UniProt P0DTC2); remark: listed apart in the source
[3] = target: Spike protein RBD (SARS-CoV-2) (UniProt P0DTC2)
[4] = target: Spike protein (SARS-CoV-2) (UniProt P0DTC2); remark: listed apart in the source
[5] = target: Spike protein (SARS-CoV-2) (UniProt P0DTC2); remark: listed apart in the source

GRP78, sequence (P11021 19-654): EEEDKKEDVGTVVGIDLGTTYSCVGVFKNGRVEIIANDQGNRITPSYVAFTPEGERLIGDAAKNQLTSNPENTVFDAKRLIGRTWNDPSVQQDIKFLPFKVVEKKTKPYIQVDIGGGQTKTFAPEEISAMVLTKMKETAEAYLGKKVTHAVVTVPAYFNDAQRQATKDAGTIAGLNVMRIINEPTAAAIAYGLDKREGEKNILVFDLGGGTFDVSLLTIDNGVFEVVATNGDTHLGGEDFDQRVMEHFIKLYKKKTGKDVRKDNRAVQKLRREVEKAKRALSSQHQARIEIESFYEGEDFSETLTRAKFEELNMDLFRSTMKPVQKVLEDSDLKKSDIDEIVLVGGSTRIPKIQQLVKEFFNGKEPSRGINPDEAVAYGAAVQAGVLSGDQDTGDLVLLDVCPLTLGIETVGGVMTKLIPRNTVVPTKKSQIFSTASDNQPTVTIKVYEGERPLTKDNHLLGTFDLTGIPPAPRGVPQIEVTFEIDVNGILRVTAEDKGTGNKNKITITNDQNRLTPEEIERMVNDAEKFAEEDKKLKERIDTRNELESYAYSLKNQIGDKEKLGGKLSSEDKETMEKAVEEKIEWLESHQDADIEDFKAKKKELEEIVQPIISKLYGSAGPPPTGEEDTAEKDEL
ASGR1, sequence (P07306 whole entry): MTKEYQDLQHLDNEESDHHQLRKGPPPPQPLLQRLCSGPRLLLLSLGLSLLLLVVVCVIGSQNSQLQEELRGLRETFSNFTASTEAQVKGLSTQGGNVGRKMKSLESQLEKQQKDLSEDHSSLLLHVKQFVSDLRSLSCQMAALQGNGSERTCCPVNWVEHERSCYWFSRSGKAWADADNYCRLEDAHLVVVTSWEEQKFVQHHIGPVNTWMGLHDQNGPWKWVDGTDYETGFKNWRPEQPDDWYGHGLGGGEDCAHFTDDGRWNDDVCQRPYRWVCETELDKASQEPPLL

In the case of ASGR1 (from UniProt P07306), the Kd [1] is listed as 125 nM.
For AXL (from UniProt P30530), the Kd [2] is listed as 882 nM.
In the case of CD147 (from UniProt P35613), the Kd [3] is listed as 185 nM.
In the case of GRP78 (from UniProt P11021), the Kd [4] is given as 55.2 nM.
In the case of NRP1 (from UniProt O14786), the Kd [5] is listed as 166 nM.
